Results reported in US20240270846A1 (published 2024).
Substitutions are numbered along the chain they refer to. Names may count otherwise.

B1: CE115HA000 S52cY one-arm antibody (antibody, human IgG1, kappa, L234A L235A, N297A, name in Kabat numbering)
heavy: QVQLVESGGGVVQPGRSLRLSCAASGFTFSNAWMHWVRQAPGKGLEWVAQIKAKYNNYATYYAESVKGRFTISRDDSKNSLYLQMNSLKTEDTAVYYCRYVHYGAYYGVDAWGQGTTVTVSSASTKGPSVFPLAPSSKSTSGGTAALGCLVKDYFPEPVTVSWNSGALTSGVHTFPAVLQSSGLYSLSSVVTVPSSSLGTQTYICNVNHKPSNTKVDKKVEPKSCDKTHTCPPCPAPEAAGGPSVFLFPPKPKDTLMISRTPEVTCVVVDVSHEDPEVKFNWYVDGVEVHNAKTKPREEQYASTYRVVSVLTVLHQDWLNGKEYKCKVSNKALPAPIEKTISKAKGQPREPQVYTLPPSRCELTKNQVSLSCAVKGFYPSDIAVEWESNGQPENNYKTTPPVLDSDGSFFLVSKLTVDKSRWQQGNVFSCSVMHEALHNHYTQKSLSLSPDYKDDDDK
chain: EPKSSDKTHTCPPCPAPELLGGPSVFLFPPKPKDTLMISRTPEVTCVVVDVSHEDPEVKFNWYVDGVEVHNAKTKPREEQYNSTYRVVSVLTVLHQDWLNGKEYKCKVSNKALPAPIEKTISKAKGQPREPQVCTLPPSRDELTKNQVSLWCLVKGFYPSDIAVEWESNGQPENNYKTTPPVLDSDGSFFLYSKLTVDKSRWQQGNVFSCSVMHEALHNRYTQKSLSLSP
light: DIVMTQSPLSLPVTPGEPASISCRSSQSLVHSNRNTYLHWYQQKPGQAPRLLIYKVSNRFSGVPDRFSGSGSGTDFTLKISRVEAEDVGVYYCGQGTQVPYTFGQGTKLEIKRTVAAPSVFIFPPSDEQLKSGTASVVCLLNNFYPREAKVQWKVDNALQSGNSQESVTEQDSKDSTYSLSSTLTLSKADYEKHKVYACEVTHQGLSSPVTKSFNRGEC
notes: one-arm antibody
B2: CE115HA000 W33Y one-arm antibody (antibody, human IgG1, kappa, L234A L235A, N297A, name in Kabat numbering)
heavy: B1 heavy with W33Y, Y55S
chain: B1 chain
light: B1 light
notes: one-arm antibody
B3: CE115HA000 S62E one-arm antibody (antibody, human IgG1, kappa, L234A L235A, N297A, name in Kabat numbering)
heavy: B1 heavy with Y55S, S65E
chain: B1 chain
light: B1 light
notes: one-arm antibody
B4: CE115HA000 Y58K one-arm antibody (antibody, human IgG1, kappa, L234A L235A, N297A, name in Kabat numbering)
heavy: B1 heavy with Y55S, Y61K
chain: B1 chain
light: B1 light
notes: one-arm antibody
B5: CE115HA000 W33F one-arm antibody (antibody, human IgG1, kappa, L234A L235A, N297A, name in Kabat numbering)
heavy: B1 heavy with W33F, Y55S
chain: B1 chain
light: B1 light
notes: one-arm antibody
B6: CE115HA000 T28S one-arm antibody (antibody, human IgG1, kappa, L234A L235A, N297A, name in Kabat numbering)
heavy: B1 heavy with T28S, Y55S
chain: B1 chain
light: B1 light
notes: one-arm antibody
B7: CE115HA000 T57A one-arm antibody (antibody, human IgG1, kappa, L234A L235A, N297A, name in Kabat numbering)
heavy: B1 heavy with Y55S, T60A
chain: B1 chain
light: B1 light
notes: one-arm antibody
B8: CE115HA000 Y59A one-arm antibody (antibody, human IgG1, kappa, L234A L235A, N297A, name in Kabat numbering)
heavy: B1 heavy with Y55S, Y62A
chain: B1 chain
light: B1 light
notes: one-arm antibody
B9: CE115HA000 Y55D one-arm antibody (antibody, human IgG1, kappa, L234A L235A, N297A, name in Kabat numbering)
heavy: B1 heavy with Y55S, Y58D
chain: B1 chain
light: B1 light
notes: one-arm antibody
B10: CE115HA000 T57I one-arm antibody (antibody, human IgG1, kappa, L234A L235A, N297A, name in Kabat numbering)
heavy: B1 heavy with Y55S, T60I
chain: B1 chain
light: B1 light
notes: one-arm antibody
B11: CE115HA000 T57K one-arm antibody (antibody, human IgG1, kappa, L234A L235A, N297A, name in Kabat numbering)
heavy: B1 heavy with Y55S, T60K
chain: B1 chain
light: B1 light
notes: one-arm antibody
B12: CE115HA000 W33L one-arm antibody (antibody, human IgG1, kappa, L234A L235A, N297A, name in Kabat numbering)
heavy: B1 heavy with W33L, Y55S
chain: B1 chain
light: B1 light
notes: one-arm antibody
B13: CE115HA000 S62K one-arm antibody (antibody, human IgG1, kappa, L234A L235A, N297A, name in Kabat numbering)
heavy: B1 heavy with Y55S, S65K
chain: B1 chain
light: B1 light
notes: one-arm antibody
B14: CE115HA000 Y55G one-arm antibody (antibody, human IgG1, kappa, L234A L235A, N297A, name in Kabat numbering)
heavy: B1 heavy with Y55S, Y58G
chain: B1 chain
light: B1 light
notes: one-arm antibody
B15: CE115HA000 W33H one-arm antibody (antibody, human IgG1, kappa, L234A L235A, N297A, name in Kabat numbering)
heavy: B1 heavy with W33H, Y55S
chain: B1 chain
light: B1 light
notes: one-arm antibody
B16: CE115HA000 Y59E one-arm antibody (antibody, human IgG1, kappa, L234A L235A, N297A, name in Kabat numbering)
heavy: B1 heavy with Y55S, Y62E
chain: B1 chain
light: B1 light
notes: one-arm antibody
B17: CE115HA000 T28D one-arm antibody (antibody, human IgG1, kappa, L234A L235A, N297A, name in Kabat numbering)
heavy: B1 heavy with T28D, Y55S
chain: B1 chain
light: B1 light
notes: one-arm antibody
B18: CE115HA000 Y59D one-arm antibody (antibody, human IgG1, kappa, L234A L235A, N297A, name in Kabat numbering)
heavy: B1 heavy with Y55S, Y62D
chain: B1 chain
light: B1 light
notes: one-arm antibody
B19: CE115HA000 S74A one-arm antibody (antibody, human IgG1, kappa, L234A L235A, N297A, name in Kabat numbering)
heavy: B1 heavy with Y55S, S77A
chain: B1 chain
light: B1 light
notes: one-arm antibody
B20: CE115HA000 V11L one-arm antibody (antibody, human IgG1, kappa, L234A L235A, N297A, name in Kabat numbering)
heavy: B1 heavy with V11L, Y55S
chain: B1 chain
light: B1 light
notes: one-arm antibody
B21: CE115HA000 S62D one-arm antibody (antibody, human IgG1, kappa, L234A L235A, N297A, name in Kabat numbering)
heavy: B1 heavy with Y55S, S65D
chain: B1 chain
light: B1 light
notes: one-arm antibody
B22: CE115HA000 W33D one-arm antibody (antibody, human IgG1, kappa, L234A L235A, N297A, name in Kabat numbering)
heavy: B1 heavy with W33D, Y55S
chain: B1 chain
light: B1 light
notes: one-arm antibody
B23: CE115HA000 Y58D one-arm antibody (antibody, human IgG1, kappa, L234A L235A, N297A, name in Kabat numbering)
heavy: B1 heavy with Y55S, Y61D
chain: B1 chain
light: B1 light
notes: one-arm antibody
B24: CE115HA000 Y58A one-arm antibody (antibody, human IgG1, kappa, L234A L235A, N297A, name in Kabat numbering)
heavy: B1 heavy with Y55S, Y61A
chain: B1 chain
light: B1 light
notes: one-arm antibody
B25: CE115HA000 W33A one-arm antibody (antibody, human IgG1, kappa, L234A L235A, N297A, name in Kabat numbering)
heavy: B1 heavy with W33A, Y55S
chain: B1 chain
light: B1 light
notes: one-arm antibody
B26: CE115HA000 D101A one-arm antibody (antibody, human IgG1, kappa, L234A L235A, N297A, name in Kabat numbering)
heavy: B1 heavy with Y55S, D110A
chain: B1 chain
light: B1 light
notes: one-arm antibody (one Fab)
B27: CE115HA000 A56Y one-arm antibody (antibody, human IgG1, kappa, L234A L235A, N297A, name in Kabat numbering)
heavy: B1 heavy with Y55S, A59Y
chain: B1 chain
light: B1 light
notes: one-arm antibody (one Fab)
B28: CE115HA000 A56Q one-arm antibody (antibody, human IgG1, kappa, L234A L235A, N297A, name in Kabat numbering)
heavy: B1 heavy with Y55S, A59Q
chain: B1 chain
light: B1 light
notes: one-arm antibody (one Fab)
B29: CE115HA000 A56L one-arm antibody (antibody, human IgG1, kappa, L234A L235A, N297A, name in Kabat numbering)
heavy: B1 heavy with Y55S, A59L
chain: B1 chain
light: B1 light
notes: one-arm antibody (one Fab)
B30: CE115HA000 A56N one-arm antibody (antibody, human IgG1, kappa, L234A L235A, N297A, name in Kabat numbering)
heavy: B1 heavy with Y55S, A59N
chain: B1 chain
light: B1 light
notes: one-arm antibody (one Fab)
B31: CE115HA000 A99D one-arm antibody (antibody, human IgG1, kappa, L234A L235A, N297A, name in Kabat numbering)
heavy: B1 heavy with Y55S, A105D
chain: B1 chain
light: B1 light
notes: one-arm antibody (one Fab)

target: T1, CD3 epsilon homodimer protein (UniProt P07766 23-126); assay: SPR Biacore T200, antibody over immobilised CD3e homodimer;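 note: CD3 epsilon homodimer amine-coupled on a CM4 chip, run at 25 °C in HBS-EP+, Z = bound amount of each single-residue H chain variant over that of the parent antibody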
T1 construct: also called CD3 (CD3 epsilon)
T1 sequence (P07766 23-126): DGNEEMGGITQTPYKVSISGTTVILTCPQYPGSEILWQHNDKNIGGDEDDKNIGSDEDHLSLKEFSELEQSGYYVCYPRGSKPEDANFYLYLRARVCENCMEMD

Row | Binder | ratio of amounts bound (Z=Y/X vs CE115HA000)
1 | B1 | 1.11
2 | B2 | 0.66
3 | B3 | 0.92
4 | B4 | 0.3
5 | B5 | 0.65
6 | B6 | 0.91
7 | B7 | 0.98
8 | B8 | 0.85
9 | B9 | 0.45
10 | B10 | 0.61
11 | B11 | 1.32
12 | B12 | 0.1
13 | B13 | 1.19
14 | B14 | 0.55
15 | B15 | 0.13
16 | B16 | 0.66
17 | B17 | 0.56
18 | B18 | 0.7
19 | B19 | 1.05
20 | B20 | 1
21 | B21 | 0.92
22 | B22 | 0.1
23 | B23 | 0.11
24 | B24 | 0.22
25 | B25 | 0.1

target: T2, CD3 epsilon homodimer protein (UniProt P07766 23-126); assay: SPR Biacore T200, CD3 epsilon homodimer on CM4 chip, antibody as analyte;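 note: Amine-coupled CD3 epsilon homodimer, run at 25 °C in HBS-EP+ buffer, ratio is bound amount of each single-residue H chain variant over that of the parent antibody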
T2 construct: Immobilized on Sensor chip CM4 by amine coupling; construct not described; also called CD3 (CD3 epsilon)
T2 sequence (P07766 23-126): as above

Row | Binder | ratio of amounts bound (Y/X vs CE115HA000)
26 | B26 | 1.26
27 | B27 | 0.66
28 | B28 | 0.76
29 | B29 | 0.8
30 | B30 | 0.87
31 | B31 | 0.28
